The text below walks through data of US20200054764A1, “MEDICAL USE OF ANTI-C MET ANTIBODY-CYTOTOXIC DRUG CONJUGATE” (priority 2016, published 2020).

By EC50 is commonly meant the concentration at which the effect is half-maximal.

The target in assay [1] is human c-Met on MKN45 cells (human) (UniProt P08581). The experiment in a line: cell-based or functional assay.
Assay [2] has as its system a variety of human tumor cell lines. To be noted: background statement; cited from earlier work.
Another assay addresses T1, human c-Met-His (Homo sapiens, UniProt P08581).
T1 construct: His tag (6xHis) (C); made in house; host or cells: 293F cells (Invitrogen, Cat # R790-07); vector pEE6.4; c-Met gene template origene RC217003
Nature of the assay: ELISA binding of c-Met antibody to c-Met antigen. To be noted: hybridoma clones, ELISA, OD450. On the procedure: This experiment uses enzyme linked immunosorbent assay to detect affinity of c-Met antibody (including supermatant of hybridonma or recombinant expressed monoclonal antibodies) to c-Met antigen in vitro.
Experimental procedures: Coating buffer (PBS; Hyclone, Cat No.: SH30256.01B) was used to dilute antigen (human c-Met-His, example 1) to 2 μg/mL, which was added to a 96-well microplate at 100 μL/well (Costar 9018, Cat No.:03113024) and incubated overnight at 4° C. […] The plate was read with plate reader at 450 nm.
Murine anti-human c-Met monoclonal cell lines were obtained by immunizing mice, fusion of spleen cells, and screening of hybridomas. […] After the first booster immunization, mice serum was collected during 7 to 10 days after each booster immunization, and the titer was detected by ELISA (Methods were described in Example 2).
After immunization, mice with a serum titer higher than 1:10^5 were selected for cell fusion. Mouse B-cells and myeloma cells (SP2/0, ATCC number:CRL-1581™) were prepared respectively in aseptic conditions and counted. […] The next day, positive clones were detected by ELISA (see Methods in Example 2).
A general note: ELISA stands for enzyme-linked immunosorbent assay.

Assay [3] has as its target T2, human c-Met ECD his tag (Human c-Met ECD-His) recombinant protein (human, UniProt P08581 25-932).
T2 construct: extracellular domain; It was expressed in 293F cells; Natural c-Met is cleaved into alpha and beta subunits; also called human c-Met-His; not shown: C-terminal His tag
The experiment in a line: ELISA, plate coated with human c-Met-His at 2 ug/mL.

human c-Met on MKN45 cells (human), sequence (P08581 25-1390): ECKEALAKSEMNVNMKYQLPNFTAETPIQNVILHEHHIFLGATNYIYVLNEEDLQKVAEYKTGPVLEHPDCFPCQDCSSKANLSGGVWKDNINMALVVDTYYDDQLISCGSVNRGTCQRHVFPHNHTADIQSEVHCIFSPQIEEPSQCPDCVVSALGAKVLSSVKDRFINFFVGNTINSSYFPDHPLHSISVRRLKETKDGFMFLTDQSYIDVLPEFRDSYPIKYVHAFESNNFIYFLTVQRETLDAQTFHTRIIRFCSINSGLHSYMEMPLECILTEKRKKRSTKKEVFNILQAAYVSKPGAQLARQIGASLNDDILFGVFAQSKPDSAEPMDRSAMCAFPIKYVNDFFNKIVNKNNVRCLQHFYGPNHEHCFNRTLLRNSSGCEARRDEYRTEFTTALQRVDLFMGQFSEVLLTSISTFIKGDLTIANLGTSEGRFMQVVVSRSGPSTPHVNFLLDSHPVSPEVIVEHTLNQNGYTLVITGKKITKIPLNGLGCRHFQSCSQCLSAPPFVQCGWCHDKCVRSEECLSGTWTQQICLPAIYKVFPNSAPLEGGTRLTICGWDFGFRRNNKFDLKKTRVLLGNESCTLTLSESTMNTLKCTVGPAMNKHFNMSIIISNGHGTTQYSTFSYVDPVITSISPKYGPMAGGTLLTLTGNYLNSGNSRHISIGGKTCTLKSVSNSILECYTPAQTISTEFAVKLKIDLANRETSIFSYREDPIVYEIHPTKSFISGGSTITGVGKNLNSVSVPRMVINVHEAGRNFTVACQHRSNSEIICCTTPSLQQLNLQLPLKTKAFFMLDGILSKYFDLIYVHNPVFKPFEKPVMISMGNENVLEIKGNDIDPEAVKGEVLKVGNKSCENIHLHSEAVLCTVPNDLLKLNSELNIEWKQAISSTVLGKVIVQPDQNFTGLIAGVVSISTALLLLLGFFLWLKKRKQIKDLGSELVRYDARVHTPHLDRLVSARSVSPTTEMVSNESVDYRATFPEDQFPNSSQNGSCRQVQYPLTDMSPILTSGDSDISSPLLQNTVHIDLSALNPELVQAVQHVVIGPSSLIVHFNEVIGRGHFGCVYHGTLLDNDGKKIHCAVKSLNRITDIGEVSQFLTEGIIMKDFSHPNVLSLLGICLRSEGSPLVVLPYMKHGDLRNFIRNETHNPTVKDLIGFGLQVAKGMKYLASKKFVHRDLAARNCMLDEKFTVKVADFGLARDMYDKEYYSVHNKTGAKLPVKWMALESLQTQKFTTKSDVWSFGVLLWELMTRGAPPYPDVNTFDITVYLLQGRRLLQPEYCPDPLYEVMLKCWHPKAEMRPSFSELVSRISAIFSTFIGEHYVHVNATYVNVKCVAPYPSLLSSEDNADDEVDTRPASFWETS
T1 sequence (P08581 with tags, fused parts or gaps limits assumed): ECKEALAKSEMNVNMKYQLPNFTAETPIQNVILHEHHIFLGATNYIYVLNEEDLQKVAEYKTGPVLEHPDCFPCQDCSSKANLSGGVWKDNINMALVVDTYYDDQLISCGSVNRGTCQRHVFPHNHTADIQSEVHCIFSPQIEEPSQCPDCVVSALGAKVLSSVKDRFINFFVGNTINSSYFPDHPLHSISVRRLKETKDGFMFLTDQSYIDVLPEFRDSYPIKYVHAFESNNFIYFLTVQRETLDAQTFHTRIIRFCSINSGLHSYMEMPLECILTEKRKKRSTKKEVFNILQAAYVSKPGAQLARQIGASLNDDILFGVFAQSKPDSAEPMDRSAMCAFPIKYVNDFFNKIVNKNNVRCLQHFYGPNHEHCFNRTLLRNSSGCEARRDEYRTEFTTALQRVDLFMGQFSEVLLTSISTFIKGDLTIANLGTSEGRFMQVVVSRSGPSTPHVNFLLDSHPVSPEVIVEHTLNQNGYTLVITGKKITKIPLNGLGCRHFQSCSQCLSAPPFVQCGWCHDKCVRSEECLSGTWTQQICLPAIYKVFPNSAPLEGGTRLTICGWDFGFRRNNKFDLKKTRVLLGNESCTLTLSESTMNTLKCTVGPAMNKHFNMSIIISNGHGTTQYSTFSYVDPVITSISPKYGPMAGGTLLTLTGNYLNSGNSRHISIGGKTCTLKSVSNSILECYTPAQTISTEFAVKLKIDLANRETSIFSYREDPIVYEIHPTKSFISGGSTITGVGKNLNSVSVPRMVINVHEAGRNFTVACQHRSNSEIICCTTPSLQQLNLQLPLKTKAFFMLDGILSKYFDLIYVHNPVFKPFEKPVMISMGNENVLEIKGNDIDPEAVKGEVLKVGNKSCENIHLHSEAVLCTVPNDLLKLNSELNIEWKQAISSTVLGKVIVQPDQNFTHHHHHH
T2 sequence (P08581 25-932): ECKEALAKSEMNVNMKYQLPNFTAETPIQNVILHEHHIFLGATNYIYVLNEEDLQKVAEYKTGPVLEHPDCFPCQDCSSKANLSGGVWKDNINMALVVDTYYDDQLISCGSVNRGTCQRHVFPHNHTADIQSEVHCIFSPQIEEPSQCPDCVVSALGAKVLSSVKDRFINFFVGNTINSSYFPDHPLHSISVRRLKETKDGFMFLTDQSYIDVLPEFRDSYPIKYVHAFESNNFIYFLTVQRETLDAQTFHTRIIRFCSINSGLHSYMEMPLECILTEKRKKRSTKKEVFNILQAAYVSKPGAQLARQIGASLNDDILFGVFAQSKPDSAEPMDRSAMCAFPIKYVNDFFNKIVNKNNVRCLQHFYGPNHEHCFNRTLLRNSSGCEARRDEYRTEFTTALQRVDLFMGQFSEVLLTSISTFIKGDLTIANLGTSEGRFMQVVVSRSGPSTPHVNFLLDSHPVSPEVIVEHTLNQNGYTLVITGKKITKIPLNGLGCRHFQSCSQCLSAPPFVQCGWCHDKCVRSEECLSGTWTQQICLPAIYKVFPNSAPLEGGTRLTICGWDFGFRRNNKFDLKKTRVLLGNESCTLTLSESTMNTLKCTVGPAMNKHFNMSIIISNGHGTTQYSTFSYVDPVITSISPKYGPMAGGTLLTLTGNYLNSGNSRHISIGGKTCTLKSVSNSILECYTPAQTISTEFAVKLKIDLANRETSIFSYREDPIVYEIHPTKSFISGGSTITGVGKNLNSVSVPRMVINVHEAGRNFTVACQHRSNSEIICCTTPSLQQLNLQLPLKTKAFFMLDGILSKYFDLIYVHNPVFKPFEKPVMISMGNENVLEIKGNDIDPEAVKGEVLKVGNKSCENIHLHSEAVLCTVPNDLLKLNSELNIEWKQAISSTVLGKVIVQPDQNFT

Consider hIgG (control) (antibody), for which, in assay [1], the endocytosis % (0 h) is 0%, the endocytosis % (0.5 h) is -0.9%, the endocytosis % (1 h) is -4.4% and the endocytosis % (2 h) was -4.9%. In addition, the endocytosis % (4 h) in assay [1] came out at 3.6%.
As to `CC[C@H](C)C([C@@H](CC(=O)N1CCC[C@H]1[C@H](OC)[C@@H](C)C(=O)N[C@H](C)[C@@H](O)c1ccccc1)OC)N(C)C(=O)[C@@H](NC(=O)[C@@H](NC)C(C)C)C(C)C` (some centres unmarked) [MMAE, Monomethyl auristatin E], the “inhibitory activities against a variety of human tumor cell lines” value in assay [2] is reported as “less than one nanomolar”.

B1: Ab-5 (antibody, V domains shown)
VH: QVQLKQSGPGLVQPSQSLSITCTVSGFSLPNYGVHWVRQSPGKGLEWLGVIWSGGSTNYAAAFVSRLRISKDNSKSQVFFEMNSLQADDTAVYYCARNHDNPYNYAMDYWGQGTTVTVSS
VL: DIVLTQSPGSLAVYLGQRATISCRANKSVSTSTYNYLHWYQQKPGQPPKLLIYLASNLASGVPARFSGSGSGTDFTLNIHPLEEEDAATYYCQHSRDLPPTFGAGTKLELKR
As to B1, the “Detection Results (OD450)” value with human c-Met-His amounted to 1.64.

B2: Ab-11 humanized antibody (antibody, human IgG2, kappa, V domains shown)
VH: QVQLVESGGGVVQPGRSLRLSCAASGFTLPNYGVHWVRQAPGKGLEWLAVIWSGGSTNYAAAFVSRLTISKDNSKNTVYLQMNSLRAEDTAVYYCARNHDNPYNYAMDYWGQGTTVTVSS
VL: DIVLTQSPDSLAVSLGERATINCRANKSVSTSTYNYLHWYQQKPGQPPKLLIYLASNLASGVPDRFSGSGSGTDFTLTISSLQAEDVAVYYCQHSRDLPPTFGQGTKLEIKR
notes: Full-length humanized antibody
Take B2: the EC50 in assay [3] stood at 0.2 nM.
